Target: EPHB2 (UniProt P29323)
Assay: phosphorylation enrichment, bacterial display (enrichment ratio); higher = better substrate or ligand; peptides without Tyr show the background
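Further: 11-residue human phosphosite peptides and single-mutation variants displayed on the E. coli surface, counted by deep sequencing, each peptide's frequency after selection divided by its frequency in the unselected input library; frequency after pTyr selection over input frequency; kinase dosed for 20-30% of maximal phosphorylation in three min.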

EPHB2, sequence (P29323 whole entry, looked up): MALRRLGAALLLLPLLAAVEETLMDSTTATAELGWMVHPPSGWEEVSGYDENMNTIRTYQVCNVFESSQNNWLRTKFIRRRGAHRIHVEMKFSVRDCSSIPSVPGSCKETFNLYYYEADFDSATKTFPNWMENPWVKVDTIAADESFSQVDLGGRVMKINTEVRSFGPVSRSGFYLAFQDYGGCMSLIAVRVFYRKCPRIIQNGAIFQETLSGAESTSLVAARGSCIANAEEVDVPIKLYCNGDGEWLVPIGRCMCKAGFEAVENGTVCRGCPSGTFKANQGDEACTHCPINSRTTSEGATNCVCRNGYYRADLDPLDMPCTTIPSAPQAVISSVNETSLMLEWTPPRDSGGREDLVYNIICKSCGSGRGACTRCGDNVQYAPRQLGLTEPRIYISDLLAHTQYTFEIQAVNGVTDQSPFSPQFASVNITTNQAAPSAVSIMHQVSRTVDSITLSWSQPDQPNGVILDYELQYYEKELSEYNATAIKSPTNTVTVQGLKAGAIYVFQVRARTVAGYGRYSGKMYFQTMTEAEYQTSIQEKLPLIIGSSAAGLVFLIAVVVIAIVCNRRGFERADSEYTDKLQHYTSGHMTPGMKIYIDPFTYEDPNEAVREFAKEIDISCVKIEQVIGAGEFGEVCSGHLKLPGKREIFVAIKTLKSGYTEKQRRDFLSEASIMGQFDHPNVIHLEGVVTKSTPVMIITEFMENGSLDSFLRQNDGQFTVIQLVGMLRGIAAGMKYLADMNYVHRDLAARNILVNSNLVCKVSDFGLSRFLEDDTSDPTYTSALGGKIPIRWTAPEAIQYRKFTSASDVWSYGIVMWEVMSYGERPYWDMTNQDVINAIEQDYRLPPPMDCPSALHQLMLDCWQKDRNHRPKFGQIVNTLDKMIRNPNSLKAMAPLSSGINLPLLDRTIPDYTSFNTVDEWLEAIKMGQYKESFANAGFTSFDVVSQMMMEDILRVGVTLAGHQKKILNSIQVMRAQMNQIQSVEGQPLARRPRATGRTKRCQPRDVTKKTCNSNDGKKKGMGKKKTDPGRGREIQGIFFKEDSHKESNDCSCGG

Sequence	phosphorylation enrichment
KWRGQYDVANK [BTK_Y425_I429N]	0.396
VNTMLYEKFTY [TEK_Y1108_T1106M]	6.33
VDLSKYITTIA [FAS_Y232]	0.341
FEPWVYSFSYE [PRKDC_Y647]	0.654
RPSGRYPVARR [SHANK3_Y1569]	0.567
ISDDNYGRIRL [ARCN1_Y310_K309N]	1.21
NFYEYYVDDPL [GCHFR_Y48_P53L]	7.76
KSPDSYQKILF [ATM_Y1415_L1420F]	0.464
KTNVSYCGALD [CACNB4_Y103]	0.508
SVTCTYSPAFN [TP53_Y126_L130F]	0.59
ERLWDCGMSSS [F8_Y1728_Y1728C]	0.52
INSLKYAYNVS [EIF2B5_Y583_I587V]	0.354
PYSEPYADYGG [APBA1_Y187]	1.18
MIRSTYALGGL [CPS1_Y590_A589T]	0.521
LEITWYPFDVE [RIPOR2_Y316]	1.05
GRFCGYKSKHG [EPHA3_Y570]	0.368
VSTAVYKRFPS [BEST1_Y148]	0.382

Sequence	phosphorylation enrichment
TENAGYYFQVS	0.713
EAIMTYVSSFY [ACTN4_Y260_K255E]	0.631
NPQKSYFIHLY [WAS_Y83_R86H]	0.586
VITDFYVDMKF [MPP4_Y567_YF]	0.824
FIATQYSLCPR [LBR_Y166_R169C_YF]	0.666
QLRPGYIPIPV [BAG3_Y93]	0.592
FADIAYIYRHG [PAH_Y166_N167I]	0.497
IGGHAYGDQYR [IDH1_Y135_R132G]	0.368
CFTGKYTLPPG [HSPB1_Y142_R140G]	0.649
VAVTKYCKEEL [ATP7B_Y1078]	0.547
RSACTYLASHL [PLK3_Y615]	0.641
TSSAGYRAAEG [COL6A3_Y543]	0.406
ARQEEYSAMRD [KRAS_Y64_G60R]	0.563
TRYDEYLEVTK [MAP1A_Y2217_H2214Y]	0.884
PLQNTYNFNVL [SLC4A1_Y553_K551N_YF]	0.756
RLLRGYDQFAY [HLA-C_Y137_S140F]	0.433

Target: Fes (UniProt P07332)
Assay: as above

Fes, sequence (P07332 whole entry, looked up): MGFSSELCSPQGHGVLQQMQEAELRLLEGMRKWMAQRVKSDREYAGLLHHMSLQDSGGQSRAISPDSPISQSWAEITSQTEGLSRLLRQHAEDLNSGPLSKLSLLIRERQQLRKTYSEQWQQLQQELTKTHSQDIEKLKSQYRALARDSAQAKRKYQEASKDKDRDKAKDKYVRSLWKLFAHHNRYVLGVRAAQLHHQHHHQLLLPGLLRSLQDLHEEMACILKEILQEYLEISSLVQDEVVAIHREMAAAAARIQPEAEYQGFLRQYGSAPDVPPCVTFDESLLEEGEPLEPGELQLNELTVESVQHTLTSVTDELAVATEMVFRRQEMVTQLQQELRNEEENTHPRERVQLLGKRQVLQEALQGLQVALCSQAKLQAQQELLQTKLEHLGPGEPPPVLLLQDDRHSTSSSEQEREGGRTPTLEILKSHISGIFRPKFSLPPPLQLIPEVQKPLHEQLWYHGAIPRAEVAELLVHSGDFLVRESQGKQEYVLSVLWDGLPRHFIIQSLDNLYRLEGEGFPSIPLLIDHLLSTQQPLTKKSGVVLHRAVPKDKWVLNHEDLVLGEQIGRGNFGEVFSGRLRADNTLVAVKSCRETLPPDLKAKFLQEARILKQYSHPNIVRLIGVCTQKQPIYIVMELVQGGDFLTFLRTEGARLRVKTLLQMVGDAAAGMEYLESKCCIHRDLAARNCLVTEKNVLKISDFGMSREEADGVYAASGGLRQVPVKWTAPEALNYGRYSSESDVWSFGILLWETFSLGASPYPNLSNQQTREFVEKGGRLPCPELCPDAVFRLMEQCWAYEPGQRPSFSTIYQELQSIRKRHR

Sequence	phosphorylation enrichment
KWRGQYDVANK [BTK_Y425_I429N]	0.705
VNTMLYEKFTY [TEK_Y1108_T1106M]	1.03
VDLSKYITTIA [FAS_Y232]	0.815
FEPWVYSFSYE [PRKDC_Y647]	1.36
RPSGRYPVARR [SHANK3_Y1569]	0.611
ISDDNYGRIRL [ARCN1_Y310_K309N]	0.516
NFYEYYVDDPL [GCHFR_Y48_P53L]	1.74
KSPDSYQKILF [ATM_Y1415_L1420F]	0.517
KTNVSYCGALD [CACNB4_Y103]	0.834
SVTCTYSPAFN [TP53_Y126_L130F]	1.51
ERLWDCGMSSS [F8_Y1728_Y1728C]	0.771
INSLKYAYNVS [EIF2B5_Y583_I587V]	1.01
PYSEPYADYGG [APBA1_Y187]	1.72
MIRSTYALGGL [CPS1_Y590_A589T]	0.693
LEITWYPFDVE [RIPOR2_Y316]	2.12
GRFCGYKSKHG [EPHA3_Y570]	0.664
VSTAVYKRFPS [BEST1_Y148]	0.733

Sequence	phosphorylation enrichment
TENAGYYFQVS	1.52
EAIMTYVSSFY [ACTN4_Y260_K255E]	1.12
NPQKSYFIHLY [WAS_Y83_R86H]	1.23
VITDFYVDMKF [MPP4_Y567_YF]	1.32
FIATQYSLCPR [LBR_Y166_R169C_YF]	1.07
QLRPGYIPIPV [BAG3_Y93]	0.915
FADIAYIYRHG [PAH_Y166_N167I]	0.978
IGGHAYGDQYR [IDH1_Y135_R132G]	0.59
CFTGKYTLPPG [HSPB1_Y142_R140G]	1.25
VAVTKYCKEEL [ATP7B_Y1078]	0.917
RSACTYLASHL [PLK3_Y615]	0.909
TSSAGYRAAEG [COL6A3_Y543]	0.629
ARQEEYSAMRD [KRAS_Y64_G60R]	0.902
TRYDEYLEVTK [MAP1A_Y2217_H2214Y]	1.25
PLQNTYNFNVL [SLC4A1_Y553_K551N_YF]	1.43
RLLRGYDQFAY [HLA-C_Y137_S140F]	0.848

System: AncSZ
Assay: as above

Sequence	phosphorylation enrichment
KWRGQYDVANK [BTK_Y425_I429N]	0.533
VNTMLYEKFTY [TEK_Y1108_T1106M]	1.23
VDLSKYITTIA [FAS_Y232]	0.657
FEPWVYSFSYE [PRKDC_Y647]	1.43
RPSGRYPVARR [SHANK3_Y1569]	0.782
ISDDNYGRIRL [ARCN1_Y310_K309N]	0.554
NFYEYYVDDPL [GCHFR_Y48_P53L]	2.81
KSPDSYQKILF [ATM_Y1415_L1420F]	0.567
KTNVSYCGALD [CACNB4_Y103]	0.778
SVTCTYSPAFN [TP53_Y126_L130F]	1.35
ERLWDCGMSSS [F8_Y1728_Y1728C]	0.803
INSLKYAYNVS [EIF2B5_Y583_I587V]	0.642
PYSEPYADYGG [APBA1_Y187]	2.11
MIRSTYALGGL [CPS1_Y590_A589T]	0.63
LEITWYPFDVE [RIPOR2_Y316]	1.49
GRFCGYKSKHG [EPHA3_Y570]	0.469
VSTAVYKRFPS [BEST1_Y148]	0.512

Sequence	phosphorylation enrichment
TENAGYYFQVS	1.39
EAIMTYVSSFY [ACTN4_Y260_K255E]	1.14
NPQKSYFIHLY [WAS_Y83_R86H]	1.12
VITDFYVDMKF [MPP4_Y567_YF]	1.23
FIATQYSLCPR [LBR_Y166_R169C_YF]	1.03
QLRPGYIPIPV [BAG3_Y93]	0.953
FADIAYIYRHG [PAH_Y166_N167I]	0.842
IGGHAYGDQYR [IDH1_Y135_R132G]	0.52
CFTGKYTLPPG [HSPB1_Y142_R140G]	1.09
VAVTKYCKEEL [ATP7B_Y1078]	0.877
RSACTYLASHL [PLK3_Y615]	0.703
TSSAGYRAAEG [COL6A3_Y543]	0.524
ARQEEYSAMRD [KRAS_Y64_G60R]	0.962
TRYDEYLEVTK [MAP1A_Y2217_H2214Y]	1.31
PLQNTYNFNVL [SLC4A1_Y553_K551N_YF]	0.891
RLLRGYDQFAY [HLA-C_Y137_S140F]	0.794

System: c-Abl (mouse)
Assay: as above

Sequence	phosphorylation enrichment
KWRGQYDVANK [BTK_Y425_I429N]	0.594
VNTMLYEKFTY [TEK_Y1108_T1106M]	1.82
VDLSKYITTIA [FAS_Y232]	0.513
FEPWVYSFSYE [PRKDC_Y647]	0.861
RPSGRYPVARR [SHANK3_Y1569]	0.677
ISDDNYGRIRL [ARCN1_Y310_K309N]	0.402
NFYEYYVDDPL [GCHFR_Y48_P53L]	1.04
KSPDSYQKILF [ATM_Y1415_L1420F]	0.511
KTNVSYCGALD [CACNB4_Y103]	0.745
SVTCTYSPAFN [TP53_Y126_L130F]	1
ERLWDCGMSSS [F8_Y1728_Y1728C]	0.49
INSLKYAYNVS [EIF2B5_Y583_I587V]	0.643
PYSEPYADYGG [APBA1_Y187]	1.03
MIRSTYALGGL [CPS1_Y590_A589T]	0.498
LEITWYPFDVE [RIPOR2_Y316]	1.25
GRFCGYKSKHG [EPHA3_Y570]	0.587
VSTAVYKRFPS [BEST1_Y148]	0.668

Sequence	phosphorylation enrichment
TENAGYYFQVS	0.983
EAIMTYVSSFY [ACTN4_Y260_K255E]	0.708
NPQKSYFIHLY [WAS_Y83_R86H]	0.864
VITDFYVDMKF [MPP4_Y567_YF]	0.727
FIATQYSLCPR [LBR_Y166_R169C_YF]	0.777
QLRPGYIPIPV [BAG3_Y93]	0.796
FADIAYIYRHG [PAH_Y166_N167I]	0.685
IGGHAYGDQYR [IDH1_Y135_R132G]	0.386
CFTGKYTLPPG [HSPB1_Y142_R140G]	0.833
VAVTKYCKEEL [ATP7B_Y1078]	0.651
RSACTYLASHL [PLK3_Y615]	0.564
TSSAGYRAAEG [COL6A3_Y543]	0.309
ARQEEYSAMRD [KRAS_Y64_G60R]	0.837
TRYDEYLEVTK [MAP1A_Y2217_H2214Y]	0.909
PLQNTYNFNVL [SLC4A1_Y553_K551N_YF]	0.893
RLLRGYDQFAY [HLA-C_Y137_S140F]	0.775
